According to paper PMC4808492:
Read-outs that look alike come from different tables or passages of the source.

Key:
[1] = biological target: cation-independent M6P receptor (CI-MPR), on an affinity column (UniProt P08169); assay: CI-MPR affinity column
[2] = biological target: cation-independent M6P receptor (CI-MPR), on an affinity column (UniProt P08169); assay: CI-MPR affinity column; remark: listed apart in the source

Chain of UniProt P08169 (P08169 45-2499): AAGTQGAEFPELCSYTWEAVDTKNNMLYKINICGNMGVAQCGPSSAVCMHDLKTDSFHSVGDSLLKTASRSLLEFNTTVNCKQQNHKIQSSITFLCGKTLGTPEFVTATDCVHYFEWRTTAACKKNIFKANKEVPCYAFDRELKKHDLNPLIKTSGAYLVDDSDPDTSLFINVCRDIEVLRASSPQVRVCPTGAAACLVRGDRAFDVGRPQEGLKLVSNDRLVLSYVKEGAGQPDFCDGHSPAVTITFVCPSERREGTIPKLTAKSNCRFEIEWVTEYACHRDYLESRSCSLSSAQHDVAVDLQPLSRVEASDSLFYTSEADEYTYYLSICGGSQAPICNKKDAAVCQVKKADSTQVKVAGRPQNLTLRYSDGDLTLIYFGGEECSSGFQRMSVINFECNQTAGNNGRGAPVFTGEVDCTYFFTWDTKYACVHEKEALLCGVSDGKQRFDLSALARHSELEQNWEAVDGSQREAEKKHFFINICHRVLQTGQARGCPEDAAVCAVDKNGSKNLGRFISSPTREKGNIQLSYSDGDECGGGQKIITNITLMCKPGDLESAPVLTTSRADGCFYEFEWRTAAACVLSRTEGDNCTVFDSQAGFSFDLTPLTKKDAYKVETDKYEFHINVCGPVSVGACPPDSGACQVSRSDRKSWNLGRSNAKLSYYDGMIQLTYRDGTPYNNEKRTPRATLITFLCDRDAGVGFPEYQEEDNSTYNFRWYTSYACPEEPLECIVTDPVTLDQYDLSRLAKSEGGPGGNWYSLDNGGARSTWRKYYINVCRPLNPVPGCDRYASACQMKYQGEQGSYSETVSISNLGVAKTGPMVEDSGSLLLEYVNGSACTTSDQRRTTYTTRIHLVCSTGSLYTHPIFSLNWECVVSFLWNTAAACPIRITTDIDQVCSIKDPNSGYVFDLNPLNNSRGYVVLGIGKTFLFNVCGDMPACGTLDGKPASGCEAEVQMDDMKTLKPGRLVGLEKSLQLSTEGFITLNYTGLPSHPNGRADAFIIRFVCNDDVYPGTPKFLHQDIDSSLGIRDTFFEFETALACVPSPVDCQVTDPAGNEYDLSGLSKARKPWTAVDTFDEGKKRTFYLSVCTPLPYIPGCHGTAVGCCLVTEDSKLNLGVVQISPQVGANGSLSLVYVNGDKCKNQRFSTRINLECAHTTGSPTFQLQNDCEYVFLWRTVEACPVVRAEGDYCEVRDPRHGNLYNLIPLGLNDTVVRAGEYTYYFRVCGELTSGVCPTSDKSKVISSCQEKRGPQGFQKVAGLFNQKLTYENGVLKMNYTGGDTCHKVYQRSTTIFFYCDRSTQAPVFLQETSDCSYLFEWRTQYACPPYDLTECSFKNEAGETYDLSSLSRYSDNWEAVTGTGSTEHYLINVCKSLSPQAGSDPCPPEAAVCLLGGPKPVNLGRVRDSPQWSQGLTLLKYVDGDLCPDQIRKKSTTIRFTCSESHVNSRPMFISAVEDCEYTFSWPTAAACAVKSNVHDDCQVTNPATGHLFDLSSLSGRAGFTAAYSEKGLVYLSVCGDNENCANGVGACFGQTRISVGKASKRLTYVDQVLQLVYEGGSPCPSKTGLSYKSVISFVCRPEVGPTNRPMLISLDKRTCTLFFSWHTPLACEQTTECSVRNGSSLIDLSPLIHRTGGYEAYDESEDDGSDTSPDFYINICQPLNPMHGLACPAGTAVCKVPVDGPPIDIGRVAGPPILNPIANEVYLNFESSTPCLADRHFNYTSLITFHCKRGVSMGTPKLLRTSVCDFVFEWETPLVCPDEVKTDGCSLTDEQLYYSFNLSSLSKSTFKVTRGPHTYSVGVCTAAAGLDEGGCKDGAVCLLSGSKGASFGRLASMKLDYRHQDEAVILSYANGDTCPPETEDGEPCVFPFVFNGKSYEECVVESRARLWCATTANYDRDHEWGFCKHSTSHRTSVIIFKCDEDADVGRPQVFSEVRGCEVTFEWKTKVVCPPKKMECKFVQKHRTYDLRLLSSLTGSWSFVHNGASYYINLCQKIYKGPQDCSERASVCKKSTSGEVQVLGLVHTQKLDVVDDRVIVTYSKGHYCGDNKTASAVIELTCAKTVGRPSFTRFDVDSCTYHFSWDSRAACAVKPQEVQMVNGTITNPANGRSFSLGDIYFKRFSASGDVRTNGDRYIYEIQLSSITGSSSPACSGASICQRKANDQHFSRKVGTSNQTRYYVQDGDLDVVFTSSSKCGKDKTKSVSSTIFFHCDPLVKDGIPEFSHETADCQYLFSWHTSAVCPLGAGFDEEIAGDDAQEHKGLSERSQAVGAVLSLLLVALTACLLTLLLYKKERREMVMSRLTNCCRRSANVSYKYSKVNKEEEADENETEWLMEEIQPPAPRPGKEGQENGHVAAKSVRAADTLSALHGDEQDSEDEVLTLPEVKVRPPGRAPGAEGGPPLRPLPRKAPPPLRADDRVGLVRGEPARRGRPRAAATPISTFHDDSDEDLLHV

Substance	percent of enzyme activity bound to the column [1] [%]	percent of enzyme activity bound to the column [2] [%]
zebrafish cathepsin D (Ctsd) from MLII (gnptab morphant) embryos (enzyme)	5	–
zebrafish cathepsin D (Ctsd) from WT animals (enzyme)	16	24.2
zebrafish cathepsin K (Ctsk) from MLII (gnptab morphant) embryos (enzyme)	17.2	–
zebrafish cathepsin K (Ctsk) from WT animals (enzyme)	86	93.1
